Source: patent US20240050432A1 (Infinity Pharmaceuticals, Inc., priority 2020, published 2024)
Like-named read-outs stand apart in the source and are kept apart here.

Columns and labels:
[1] = Phase 2 urothelial carcinoma study: adverse events; type: in vivo, human
From the text: (§1) Methods: Eligible patients (pts) with mUC who progressed on >1 platinum-based chemotherapy regimen and were CPI naïve were enrolled. […] Pts were stratified by baseline circulating monocytic myeloid derived suppressor cells (mMDSC) level. The primary endpoint was objective response rate (ORR) per RECIST v1.1 in pts with high baseline mMDSC levels. Other endpoints included ORR, progression free survival (PFS) and overall survival (OS) in all pts, PD-L1+/−pts and pts with hepatic adverse events (AE).
(§2) The dose for nivolumab is 480 mg Q4W.

[2] = tested on: advanced urothelial carcinoma; assay: Phase 2 randomized study of eganelisib + nivolumab vs nivolumab: response, PFS, OS; type: in vivo, human; settings: for Median PFS: preliminary PFS
From the text: as §1
Advanced platinum refractory 2nd line urothelial cancer patients: Inclusion/exclusion criteria per CheckMate-275; MDSC* all corners (stratified); PD-L1** status all corners (non-stratified). • * Circulating mMDSC levels measured in baseline peripheral blood samples based on a Clinical Laboratory Improvement Amendments (CLIA)-certified flow cytometry assay (low [<22.3%] or high [≥22.3%] or ≥/<the median MDSC level of patients in this trial) • ** PD-L1 expression measured in baseline/archival tumor biopsies with Dako PD-L1 immunohistochemical 28-8 pharmDx kit approved for nivolumab in UC, except 2 biopsies tested with 22C3 PD-L1 antibody prior to study (Tumor Proportion Score≥1% cutoff for PD-L1 (+)) • Primary objective: ORR in MDSC High • Secondary objectives: ORR, TTR, DOR, and PFS in total population+MDSC subsets; safety; PK • Exploratory objectives: safety and efficacy in biomarker subsets, including PD-L1; OS
as §2

[3] = tested on: interferon alpha pathway; assay: Peripheral blood gene set enrichment, day 15 vs. day 0; type: in vivo, human
From the text: (§3) In all patients (day 15 vs. day 0): interferon gamma pathway: ES=0.81, p<0.01 (combination, n=31) vs. ES=0.51, p=0.28 (nivolumab, n=14); interferon alpha pathway: ES=0.87, p<0.01 (combination, n=31) vs. ES=0.53, p=0.39 (nivolumab, n=14). In PD-L1 negative patients (day 15 vs. day 0): interferon gamma pathway: ES=0.82, p<0.01 (combination, n=21) vs. ES=0.55, p=0.15 (nivolumab, n=5); interferon alpha pathway: ES=0.88, p<0.01 (combination, n=21) vs. ES=0.53, p=0.35 (nivolumab, n=5).

[4] = tested on: interferon gamma pathway; assay: as above; type: in vivo, human
From the text: as §3

[5] = tested on: metastatic urothelial carcinoma (mUC); settings: CheckMate-275, cited from earlier work
[6] = preliminary analysis, N=33 vs N=16
[7] = preliminary analysis, N=33 vs N=16, 1 Grade 4
[8] = snapshot Jun. 26, 2021, N=33 vs N=16
[9] = snapshot Jun. 26, 2021, PD-L1 negative patients
[10] = snapshot Jun. 26, 2021, all patients
[11] = PD-L1 negative patients, n=21 vs n=5

For “Nivolumab + Placebo: placebo with nivolumab (PN), active control arm”, the “asthenia, all-Gr AE” value ([1]; first 49 pts (33 EN, 16 PN)) was 31%, the “hepatotoxicity, Gr≥3 AE” value ([1]; first 49 pts (33 EN, 16 PN)) was 0% and the “pruritis, all-Gr AE” value ([1]; first 49 pts (33 EN, 16 PN)) was 6%. The “pyrexia, all-Gr AE” value ([1]; first 49 pts (33 EN, 16 PN)) was 0%, the “rash, Gr≥3 AE” value ([1]; first 49 pts (33 EN, 16 PN)) was 0% and the “rash, all-Gr AE” value ([1]; first 49 pts (33 EN, 16 PN)) was 6%. For the same substance, the “transaminase elevation, Gr≥3 AE” value ([1]; first 49 pts (33 EN, 16 PN)) was 6%, the “transaminase elevation, all-Gr AE” value ([1]; first 49 pts (33 EN, 16 PN)) was 6% and the “Aspartate aminotransferase increased, Grade≥3 TEAE, Related to Eganelisib (Placebo in control arm)” value [1, 6] was 0 n (%). For the same substance, the “Aspartate aminotransferase increased, Grade≥3 TEAE, Related to Nivolumab” value [1, 6] was 0 n (%), the “Asthenia, TEAE, All Causality” value [1, 6] was 4 (25.0) n (%) and the “Asthenia, TEAE, Related to Eganelisib (Placebo in control arm)” value [1, 6] was 2 (12.5) n (%). The “Asthenia, TEAE, Related to Nivolumab” value [1, 6] was 1 (6.3) n (%), the “Decreased appetite, TEAE, All Causality” value [1, 6] was 4 (25.0) n (%) and the “Decreased appetite, TEAE, Related to Eganelisib (Placebo in control arm)” value [1, 6] was 1 (6.3) n (%). The “Decreased appetite, TEAE, Related to Nivolumab” value [1, 6] was 0 n (%), the “Disease progression, Grade≥3 TEAE, All Causality” value [1, 6] was 6 (37.5) n (%) and the “Disease progression, Grade≥3 TEAE, Related to Eganelisib (Placebo in control arm)” value [1, 6] was 0 n (%). For the same substance, the “Disease progression, Grade≥3 TEAE, Related to Nivolumab” value [1, 6] was 0 n (%), the “Disease progression, TEAE, All Causality” value [1, 6] was 6 (37.5) n (%) and the “Disease progression, TEAE, Related to Eganelisib (Placebo in control arm)” value [1, 6] was 0 n (%). The “Disease progression, TEAE, Related to Nivolumab” value [1, 6] was 0 n (%), the “Hepatotoxicity, Grade≥3 TEAE, Related to Eganelisib (Placebo in control arm)” value [1, 6] was 0 n (%) and the “Hepatotoxicity, Grade≥3 TEAE, Related to Nivolumab” value [1, 6] was 0 n (%). For the same substance, the “Pruritus, TEAE, All Causality” value [1, 6] was 1 (6.3) n (%), the “Pruritus, TEAE, Related to Eganelisib (Placebo in control arm)” value [1, 6] was 0 n (%) and the “Pruritus, TEAE, Related to Nivolumab” value [1, 6] was 0 n (%). For the same substance, the “Pyrexia, TEAE, All Causality” value [1, 6] was 0 n (%), the “Pyrexia, TEAE, Related to Eganelisib (Placebo in control arm)” value [1, 6] was 0 n (%) and the “Pyrexia, TEAE, Related to Nivolumab” value [1, 6] was 0 n (%). For the same substance, the “Rash, TEAE, All Causality” value [1, 6] was 1 (6.3) n (%), the “Rash, TEAE, Related to Eganelisib (Placebo in control arm)” value [1, 6] was 0 n (%) and the “Rash, TEAE, Related to Nivolumab” value [1, 6] was 0 n (%). The “Aspartate aminotransferase increased, Grade≥3 TEAE, All Causality” value [1, 7] was 1 (6.3) n (%), the “Hepatotoxicity, Grade≥3 TEAE, All Causality” value [1, 7] was 0 n (%) and the “Anemia, Grade≥3 TEAE, All Causality” value [1, 8] was 1 (6.3) n (%). The “Anemia, Grade≥3 TEAE, Related to Eganelisib (Placebo in control arm)” value [1, 8] was 0 n (%), the “Anemia, Grade≥3 TEAE, Related to Nivolumab” value [1, 8] was 0 n (%) and the “Aspartate aminotransferase increased, Grade≥3 TEAE, All Causality” value [1, 8] was 1 (6.3) n (%). For the same substance, the “Aspartate aminotransferase increased, Grade≥3 TEAE, Related to Eganelisib (Placebo in control arm)” value [1, 8] was 1 (6.3) n (%), the “Aspartate aminotransferase increased, Grade≥3 TEAE, Related to Nivolumab” value [1, 8] was 1 (6.3) n (%) and the “Asthenia, TEAE, All Causality” value [1, 8] was 5 (31.3) n (%). The “Asthenia, TEAE, Related to Eganelisib (Placebo in control arm)” value [1, 8] was 2 (12.5) n (%), the “Asthenia, TEAE, Related to Nivolumab” value [1, 8] was 1 (6.3) n (%) and the “Decreased appetite, TEAE, All Causality” value [1, 8] was 5 (31.3) n (%). The “Decreased appetite, TEAE, Related to Eganelisib (Placebo in control arm)” value [1, 8] was 1 (6.3) n (%), the “Decreased appetite, TEAE, Related to Nivolumab” value [1, 8] was 0 n (%) and the “Disease progression, Grade≥3 TEAE, All Causality” value [1, 8] was 4 (25.0) n (%). For the same substance, the “Disease progression, Grade≥3 TEAE, Related to Eganelisib (Placebo in control arm)” value [1, 8] was 0 n (%), the “Disease progression, Grade≥3 TEAE, Related to Nivolumab” value [1, 8] was 0 n (%) and the “Disease progression, TEAE, All Causality” value [1, 8] was 4 (25.0) n (%). The “Disease progression, TEAE, Related to Eganelisib (Placebo in control arm)” value [1, 8] was 0 n (%), the “Disease progression, TEAE, Related to Nivolumab” value [1, 8] was 0 n (%) and the “Hepatotoxicity, Grade≥3 TEAE, All Causality” value [1, 8] was 0 n (%). The “Hepatotoxicity, Grade≥3 TEAE, Related to Eganelisib (Placebo in control arm)” value [1, 8] was 0 n (%), the “Hepatotoxicity, Grade≥3 TEAE, Related to Nivolumab” value [1, 8] was 0 n (%) and the “Pruritus, TEAE, All Causality” value [1, 8] was 1 (6.3) n (%). The “Pruritus, TEAE, Related to Eganelisib (Placebo in control arm)” value [1, 8] was 0 n (%), the “Pruritus, TEAE, Related to Nivolumab” value [1, 8] was 0 n (%) and the “Pyrexia, TEAE, All Causality” value [1, 8] was 0 n (%). The “Pyrexia, TEAE, Related to Eganelisib (Placebo in control arm)” value [1, 8] was 0 n (%), the “Pyrexia, TEAE, Related to Nivolumab” value [1, 8] was 0 n (%) and the “Rash, TEAE, All Causality” value [1, 8] was 1 (6.3) n (%). For the same substance, the “Rash, TEAE, Related to Eganelisib (Placebo in control arm)” value [1, 8] was 0 n (%), the “Rash, TEAE, Related to Nivolumab” value [1, 8] was 0 n (%) and the “Discontinued treatment: Adverse event, unrelated to treatment” value ([1]; snapshot Jun. 26, 2021, of discontinued patients) was 0 n. For the same substance, the “patients with reduction of tumor burden” value ([2]; PD-L1(−) patients, best change of target lesion) was 17%, the “Median PFS” value ([2]; ITT) was 8.5 wks and the “Median PFS” value ([2]; PD-L1(+)) was 16.4 wks. For the same substance, the “Median PFS” value ([2]; PD-L1(−)) was 7.9 wks, the “patients for whom durability of OS benefit continued to mature” value ([2]; snapshot Jun. 26, 2021) was 18% and the “median OS (mOS)” value [2, 9] was 7.9 months. The “median OS (mOS)” value [2, 10] was 7.9 months.
With nivolumab the “overall survival probability at one year landmark” value [2, 9] was 17%, the “overall survival probability at one year landmark” value [2, 10] was 32% and the “gene set Enrichment Score (ES), interferon alpha pathway” value [3, 11] was 0.53. For the same substance, the “gene set Enrichment Score (ES), interferon alpha pathway” value ([3]; all patients, n=31 vs n=14) was 0.53, the “gene set Enrichment Score (ES), interferon gamma pathway” value [4, 11] was 0.55 and the “gene set Enrichment Score (ES), interferon gamma pathway” value ([4]; all patients, n=31 vs n=14) was 0.51. The “Median OS (95% CI)” value ([5]; All (n = 270)) was 8.6 (6.1-11.3) mo, the “Median PFS (95% CI)” value ([5]; All (n = 270)) was 1.9 (1.9, 2.3) mo and the “ORR (95% CI)” value ([5]; All (n = 270)) was 20 (16-26) %. The “Median OS (95% CI)” value ([5]; PD-L1 < 1% (n = 146)) was 6.0 (4.4-8.1) mo, the “Median PFS (95% CI)” value ([5]; PD-L1 < 1% (n = 146)) was 1.9 (1.7, 2.0) mo and the “ORR (95% CI)” value ([5]; PD-L1 < 1% (n = 146)) was 16 (10-23) %. For the same substance, the “Median OS (95% CI)” value ([5]; PD-L1 ≥ 1% (n = 124)) was 11.9 (9.1-19.1) mo, the “Median PFS (95% CI)” value ([5]; PD-L1 ≥ 1% (n = 124)) was 3.5 (1.9, 3.7) mo and the “ORR (95% CI)” value ([5]; PD-L1 ≥ 1% (n = 124)) was 26 (18-34) %.
